Experimental findings from the Immune Epitope Database (IEDB) are described below.

Bounds are passed on as bounds.

For orientation: Kd means the free concentration of one partner at which half of the binding sites on the other are occupied at equilibrium, for simple one-to-one binding.

Experiment [1] has as its target HLA-B*51:01. Kind of experiment: IEDB peptide-MHC binding, purified MHC/direct/fluorescence; filed as Kd, often an IC50 or EC50 that approximates it; ≥ and ≤ were set here for values at or beyond the usual limits of such assays. As to conditions: source organism: Francisella tularensis subsp. tularensis FSC033.
Experiment [2] has as its target HLA-B*57:01. Described as above. The note with it: source organism: Francisella tularensis subsp. tularensis FSC033.
A further experiment deals with HLA-B*44:02. The experiment is described as above.
The next experiment deals with HLA-A*02:01. Described as above.
The target of experiment [3] is HLA-B*15:01. Described as above.
Experiment [4] concerns the target HLA-B*18:01. Described as above. As to conditions: source organism: Francisella tularensis subsp. tularensis FSC033.
The target of another experiment is HLA-B*40:01. Described as above.
For experiment [5], the target named is HLA-A*02:50. Described as above. The note with it: source organism: Francisella tularensis subsp. tularensis FSC033.
In a further experiment the target is HLA-A*30:01. The experiment is described as above. The note with it: source organism: Francisella tularensis subsp. tularensis FSC033.
A further experiment deals with HLA-B*07:02. The experiment is described as above.
In a further experiment the target is HLA-A*29:02. Described as above.
A further experiment concerns the target HLA-A*01:01. Described as above.
Another experiment concerns the target HLA-B*58:01. The experiment is described as above.
In experiment [6] the target is HLA-A*69:01. The experiment is described as above.
Experiment [7] deals with HLA-B*51:01. Kind of experiment: IEDB peptide-MHC binding, purified MHC/competitive/fluorescence; filed as Kd, often an IC50 or EC50 that approximates it; ≥ and ≤ were set here for values at or beyond the usual limits of such assays. As to conditions: source organism: Zaire ebolavirus.
Experiment [8] has as its target HLA-B*57:01. Described as above. The note with it: source organism: Zaire ebolavirus.
Another experiment has as its target HLA-A*26:01. The description is as above. As to conditions: source organism: Zaire ebolavirus.
Experiment [9] concerns the target HLA-B*15:01. Described as above. The note with it: source organism: Zaire ebolavirus.
Another experiment deals with HLA-B*46:01. Described as above. The note with it: source organism: Zaire ebolavirus.
For experiment [10], the target named is HLA-B*18:01. The experiment is described as above. As to conditions: source organism: Zaire ebolavirus.
A further experiment has as its target HLA-B*27:03. Described as above. As to conditions: source organism: Zaire ebolavirus.
In a further experiment the target is HLA-A*25:01. The experiment is described as above. As to conditions: source organism: Zaire ebolavirus.
The target in the next experiment is HLA-A*80:01. Described as above. The note with it: source organism: Zaire ebolavirus.
For another experiment, the target named is HLA-B*39:01. The experiment is described as above. As to conditions: source organism: Zaire ebolavirus.
The target of experiment [11] is HLA-A*69:01. The description is as above. As to conditions: source organism: Zaire ebolavirus.
The target in the next experiment is HLA-A*03:01. Kind of experiment: IEDB peptide-MHC binding, purified MHC/direct/fluorescence; filed as Kd, often an IC50 or EC50 that approximates it; ≥ and ≤ were set here for values at or beyond the usual limits of such assays.
A further experiment has as its target HLA-A*68:02. The experiment is described as above. As to conditions: source organism: Zaire ebolavirus.
Another experiment deals with HLA-A*02:11. The description is as above.
The target in experiment [12] is HLA-A*02:50. The experiment can be described thus: IEDB peptide-MHC binding, purified MHC/competitive/fluorescence; filed as Kd, often an IC50 or EC50 that approximates it; ≥ and ≤ were set here for values at or beyond the usual limits of such assays. As to conditions: source organism: Coxiella burnetii RSA 493.
For the next experiment, the target named is HLA-C*08:02. Kind of experiment: IEDB peptide-MHC binding, purified MHC/direct/fluorescence; filed as Kd, often an IC50 or EC50 that approximates it; ≥ and ≤ were set here for values at or beyond the usual limits of such assays. As to conditions: source organism: Coxiella burnetii RSA 493.
The target of the next experiment is HLA-A*11:01. Described as above. The note with it: source organism: Coxiella burnetii.
In a further experiment the target is HLA-A*02:12. The experiment is described as above. The note with it: source organism: Coxiella burnetii Q321.
Another experiment addresses HLA-A*02:06. The description is as above. As to conditions: source organism: Coxiella burnetii Q321.
The next experiment has as its target HLA-A*02:19. The experiment is described as above. The note with it: source organism: Coxiella burnetii Q321.
In a further experiment the target is HLA-C*12:03. The experiment is described as above. The note with it: source organism: Coxiella burnetii RSA 493.
Another experiment has as its target HLA-A*02:03. The experiment is described as above. As to conditions: source organism: Coxiella burnetii Q321.
For another experiment, the target named is HLA-B*27:05. Described as above. As to conditions: source organism: Coxiella burnetii.
The next experiment deals with HLA-A*24:02. Described as above. As to conditions: source organism: Coxiella burnetii.
Where [13] appears, read: source organism: Francisella tularensis subsp. tularensis FSC033.
The mark [14] stands for this setting: source organism: Francisella tularensis subsp. holarctica OSU18.
[15] abbreviates: source organism: Zaire ebolavirus.
The mark [16] stands for this setting: source organism: Coxiella burnetii.

As to ETLDVFGPI, the dissociation constant (Kd) with HLA-B*51:01 [1], with HLA-B*57:01 [2], with HLA-B*44:02 (setting [13]), with HLA-A*02:01 (setting [14]), with HLA-B*15:01 [3] (setting [13]) and with HLA-B*18:01 [4] was no less than 20 µM throughout. Further, the Kd in the experiment with HLA-B*40:01 (setting [13]), with HLA-A*02:50 [5], in the experiment with HLA-A*30:01, in the experiment with HLA-B*07:02 (setting [13]), in the experiment with HLA-A*29:02 (setting [13]) and with HLA-A*01:01 (setting [13]) was no less than 20 µM throughout. Besides, the Kd is no less than 20 µM with HLA-B*58:01 (setting [13]) and 0.0004 µM in the experiment with HLA-A*69:01 [6] (setting [14]).

Turning to SLTDRELLL, the dissociation constant (Kd) with HLA-B*51:01 [7], with HLA-B*57:01 [8], with HLA-A*26:01, in the experiment with HLA-B*15:01 [9], in the experiment with HLA-B*46:01 and with HLA-B*18:01 [10] was no less than 20 µM in each case. For the same sequence, the equilibrium dissociation constant (Kd) with HLA-B*27:03, with HLA-A*25:01, with HLA-A*80:01, in the experiment with HLA-B*39:01, in the experiment with HLA-A*69:01 [11] and with HLA-A*03:01 (setting [15]) was no less than 20 µM in each case. Moreover, the Kd with HLA-A*68:02 is no less than 20 µM; with HLA-A*02:01 (source organism: Sudan ebolavirus - Uganda (2000)), 0.0013 µM; with HLA-A*02:11 (setting [15]) it was no less than 20 µM; in the experiment with HLA-A*29:02 (setting [15]), no less than 20 µM.

For YMHGSIHEV, the Kd is no more than 0.0001 µM with HLA-A*02:50 [12]; no less than 20 µM in the experiment with HLA-C*08:02; no less than 20 µM with HLA-A*11:01; no less than 20 µM with HLA-B*44:02 (setting [16]); no less than 20 µM with HLA-A*03:01 (setting [16]); 0.007 µM in the experiment with HLA-A*02:12. The equilibrium dissociation constant (Kd) is 0.057 µM with HLA-A*02:01 (setting [16]); 0.002 µM with HLA-A*02:06; 0.002 µM in the experiment with HLA-A*02:11 (source organism: Coxiella burnetii Q321); 0.118 µM with HLA-B*15:01 [3] (setting [16]); 0.007 µM with HLA-A*02:19; no less than 20 µM with HLA-B*40:01 (setting [16]). In addition, the equilibrium dissociation constant (Kd) was no less than 20 µM with HLA-B*07:02 (setting [16]); 0.026 µM with HLA-C*12:03; no less than 20 µM in the experiment with HLA-A*01:01 (setting [16]); no less than 20 µM with HLA-B*58:01 (setting [16]); 0.002 µM with HLA-A*02:03; 0.0407 µM with HLA-A*69:01 [6] (setting [16]). The Kd with HLA-B*27:05 and with HLA-A*24:02 was no less than 20 µM in each case.
